Results taken from patent publication US7064181 (Takeda / Millennium, dated 2006).
Values belong to the binder of their own block, whether it stands above or below them.

How the values were obtained:
[1] = biological target: T1, monoclonal antibody GR2-1N; assay: competitive EIA on GR2-1N, competitor HRP-labeled SEQ ID NO:44 peptide
T1 construct: Mouse monoclonal against the same KLH complex; IgG2b, κ; also called hybridoma strain No. 4

[2] = biological target: T2, rat GALR2 (galanin receptor type 2) (rat, UniProt O08726 1-372); assay: displacement of [125I] rat galanin from GALR2-expressing CHO cell membrane fraction
T2 construct: Expressed in CHO/dhfr- cells; The assays used the membrane fraction of these cells; also called rat galanin receptor GALR2
T2 sequence: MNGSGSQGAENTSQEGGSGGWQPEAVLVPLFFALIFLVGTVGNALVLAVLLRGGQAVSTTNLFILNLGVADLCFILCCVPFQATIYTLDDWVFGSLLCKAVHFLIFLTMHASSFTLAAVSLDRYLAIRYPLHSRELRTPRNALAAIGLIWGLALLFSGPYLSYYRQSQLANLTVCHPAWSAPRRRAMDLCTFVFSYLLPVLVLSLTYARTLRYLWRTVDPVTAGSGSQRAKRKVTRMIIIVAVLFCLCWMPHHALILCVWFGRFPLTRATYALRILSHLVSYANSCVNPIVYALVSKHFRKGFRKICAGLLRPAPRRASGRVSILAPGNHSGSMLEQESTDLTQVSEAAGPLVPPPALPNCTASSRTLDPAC

IC50 [1]: 6 nM
B1: porcine ligand peptide (1-60) (peptide)
peptide: APVHRGRGGWTLNSAGYLLGPVLHPPSRAEGGGKGKTALGILDLWKAIDGLPYPQSQLAS
notes: also called porcine (1-60); inventive peptide synthesis product

IC50 [2]: 1.4 nM
B2: porcine ligand peptide (1-30) (peptide)
peptide: APVHRGRGGWTLNSAGYLLGPVLHPPSRAE
notes: also called porcine (1-30)

IC50 [2]: 1.4 nM
B3: porcine ligand peptide (1-34) (peptide)
peptide: APVHRGRGGWTLNSAGYLLGPVLHPPSRAEGGGK
notes: also called porcine (1-34)
